Experimental data from US20210269549A1, “ANTI-SAS1B ANTIBODIES, ASSOCIATED METHODS OF USE, AND COMPOSITIONS AND METHODS FOR DETECTING AND TREATING CANCER” (UNIVERSITY OF VIRGINIA PATENT FOUNDATION, priority 2015, published 2021).

T1: human SAS1B protein with a C-terminal V5 tag expressed by HEK293T cells (Homo sapiens, UniProt Q6HA08)
T1 construct: expressed in transfected cells; host or cells: HEK293T
T1 sequence (Q6HA08 24-431): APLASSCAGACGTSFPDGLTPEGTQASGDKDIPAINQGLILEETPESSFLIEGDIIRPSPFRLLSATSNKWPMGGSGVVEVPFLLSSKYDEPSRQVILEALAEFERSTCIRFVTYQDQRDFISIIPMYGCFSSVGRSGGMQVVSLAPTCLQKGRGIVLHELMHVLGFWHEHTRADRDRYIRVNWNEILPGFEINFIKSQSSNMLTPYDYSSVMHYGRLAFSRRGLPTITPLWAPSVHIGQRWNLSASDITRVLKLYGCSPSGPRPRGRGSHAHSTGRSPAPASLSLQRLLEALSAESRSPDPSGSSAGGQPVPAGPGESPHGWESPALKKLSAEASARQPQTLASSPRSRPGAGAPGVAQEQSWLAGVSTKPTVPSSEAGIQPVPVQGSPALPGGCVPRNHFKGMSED

T2: human SAS1B (Homo sapiens, UniProt Q6HA08)
T2 construct: made in house; host or cells: E. coli
T2 sequence (Q6HA08 24-431): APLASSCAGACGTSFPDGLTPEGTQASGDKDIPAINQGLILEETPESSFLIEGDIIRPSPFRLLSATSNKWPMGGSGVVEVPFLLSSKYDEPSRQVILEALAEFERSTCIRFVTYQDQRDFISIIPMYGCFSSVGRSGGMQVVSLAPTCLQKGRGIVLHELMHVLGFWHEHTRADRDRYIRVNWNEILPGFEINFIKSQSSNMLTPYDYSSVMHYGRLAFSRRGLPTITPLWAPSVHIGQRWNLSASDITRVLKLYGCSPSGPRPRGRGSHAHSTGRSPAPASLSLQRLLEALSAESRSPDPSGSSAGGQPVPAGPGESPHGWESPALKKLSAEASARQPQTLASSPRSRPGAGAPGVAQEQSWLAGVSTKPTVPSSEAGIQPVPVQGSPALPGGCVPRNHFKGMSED

T3: SAS1B extracellular domain (aa 164-431) polypeptide (Homo sapiens, UniProt Q6HA08)
T3 construct: SAS1B extracellular domain (aa 164-431) polypeptide; made in house
T3 sequence (Q6HA08 164-431): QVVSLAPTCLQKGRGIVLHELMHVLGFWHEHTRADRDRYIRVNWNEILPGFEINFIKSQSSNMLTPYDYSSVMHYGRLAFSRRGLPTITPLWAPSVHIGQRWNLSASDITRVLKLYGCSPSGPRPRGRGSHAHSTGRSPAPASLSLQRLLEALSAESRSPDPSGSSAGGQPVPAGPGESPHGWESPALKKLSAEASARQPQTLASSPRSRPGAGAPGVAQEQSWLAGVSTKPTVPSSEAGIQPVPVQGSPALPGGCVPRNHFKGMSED

T4: full-length SAS1B splice variant A polypeptide (Homo sapiens, UniProt Q6HA08)
T4 construct: made in house
T4 sequence (Q6HA08 24-431): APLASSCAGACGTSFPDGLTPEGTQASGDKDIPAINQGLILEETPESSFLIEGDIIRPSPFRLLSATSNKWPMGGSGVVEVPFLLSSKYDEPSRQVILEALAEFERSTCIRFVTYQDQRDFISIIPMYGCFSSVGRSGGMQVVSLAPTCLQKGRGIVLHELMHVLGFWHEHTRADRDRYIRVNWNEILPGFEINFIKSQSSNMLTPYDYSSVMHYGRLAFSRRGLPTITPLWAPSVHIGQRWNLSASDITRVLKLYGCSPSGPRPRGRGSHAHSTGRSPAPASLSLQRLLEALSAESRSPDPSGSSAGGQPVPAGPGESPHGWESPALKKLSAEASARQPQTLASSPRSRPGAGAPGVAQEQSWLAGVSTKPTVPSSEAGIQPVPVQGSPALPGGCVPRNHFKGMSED


Columns and labels:
[1] = test system: human uterine cancer cells (MMMT539); assay: Antibody drug conjugate cytotoxicity (ADC) assay, MMMT539; type: cell-based; details: FIG. 3A-B
Description: The cytotoxic effect of anti-human SAS1B mAbs SB2 and SB5 on human uterine cancer cells (MMMT539) was examined by antibody drug conjugate cytotoxicity (ADC) assay. Human uterine cancer cells MMMT539 were seeded in triplicate on 96 well plate overnight and then treated with SB2 or SB5 and anti-mouse Fab-cleavable-Duocarmycin complex for ˜90 h. The presence of viable live cells per well was measured by total cellular ATP content in relative luminescence unit (RLU). Viability of control live cells (100%) was determined from average of 9 wells in terms of total cellular ATP (in RLU) containing the constant 15 nM Fab-CL-DMDM for each set of antibody/reagent. […] Staurosporine, a general protein kinase inhibitor, was used to induce apoptosis in 1% DMSO as a positive control for the assay.

[2] = target: T1, human SAS1B protein with a C-terminal V5 tag expressed by HEK293T cells; assay: Double immunofluorescence on fixed and permeabilized HEK293T cells transfected with SAS1B SV-A with V5 tag; type: cell-based; details: for IF signal / colocalization with V5-tag epitope signal: SV-A transfected HEK293T, PFA fixed, methanol permeabilized, mAbs at 10 ug/ml
Description: Experiments were conducted to determine the specificity of anti-human SAS1B monoclonal antibodies SB1, SB2, SB3, SB4, SB5, SB6 and SB7 against the human SAS1B protein with a C-terminal V5 tag expressed by HEK293T cells by double immuno-fluorescence from two different SAS1B epitopes. HEK293T cells were seeded at ˜100,000 per well of a 24 well plate containing a lysine-coated 12 mm coverslip. 24 hours later, the cells were transfected with 1 ug of SV-A plasmid with 2 ul of TURBOFECT® transfection reagent followed by no change of media. 48 h later the cells were PFA (paraformaldehyde) fixed and methanol permeabilized for an IF study as follows.
The cells were removed from cell culture media and fixed in 4% PFA in PBS, 300 ul for 15 min. The cells were washed in 1 ml PBS in wells for 3 times and permeabilized in methanol (100%) for 15 min in 0.5 ml at RT. The cells were washed in PBS 1 ml for 3 times and blocked in complete culture media (DMEM) with 5% normal goat serum (NGS) for 30 min (i.e. BB, blocking buffer). The first antibody in BB was added for 1 h at 10 ug/ml for mouse monoclonal antibodies (SB1, SB2, SB3, SB4, SB5, SB6, SB7) and 5 ug/ml for anti-V5 DYLIGHT® 488 (green) rabbit (a rabbit polyclonal antibody to V5 tag). The cells were washed in PBS 3 times. The second antibody in BB (Goat anti-mouse Alexa Flour 594, red) was added for 1 h at 5 ug/ml (1:200 dilution). The cells were washed in PBS 3 times. The cells were mounted in slow fade DAPI 3 ul and stored at 4° C. before confocal imaging.

[3] = target: T2, human SAS1B; assay: Western blot of human SAS1B probed with anti-human SAS1B murine mAbs; type: binding; details: for Specifically binds human SAS1B (and not mouse SAS1B): Table 1
Excerpt: A western blot of human SAS1B and mouse SAS1B was probed with anti-human SAS1B murine monoclonal antibodies SB1, SB2, SB3, SB4, SB5, SB6, and SB7.

[4] = target: T3, SAS1B extracellular domain (aa 164-431) polypeptide; assay: Western blot with mammalian cell-expressed recombinant SAS1B, extracellular domain; type: binding
Description: (§1) SAS1B monoclonal antibodies were analyzed with mammalian cell-expressed recombinant SAS1B by western blotting.

[5] = target: T4, full-length SAS1B splice variant A polypeptide; assay: Western blot with mammalian cell-expressed recombinant SAS1B, full length; type: binding
Description: as §1

Signal on mock transfected HEK293T cells [2] | Reactivity on western blot of human SAS1B and mouse SAS1B [3] | Specificity in western blot for human SAS1B antigen in an E. coli protein background [3] | Specifically binds human SAS1B (and not mouse SAS1B) [3] | Reaction with SAS1B extracellular domain (aa 164-431) polypeptide [4] | Molecule | Cell killing [1] | IF signal / colocalization with V5-tag epitope signal [2] | Reaction with full-length SAS1B splice variant A polypeptide [5]
– | – | – | – | – | CN[C@@H]1C[C@H]2O[C@@](C)([C@@H]1OC)n1c3ccccc3c3c4c(c5c6ccccc6n2c5c31)C(=O)NC4 [Staurosporine, reference compound] | killed the cancer cells in a dose dependent manner | – | –
no V5 signal or SAS1B signal | specific to the human SAS1B only | demonstrated specificity | Yes | none of the them reacted | SB6: mouse anti-human SAS1B monoclonal antibody, IgG2b; VH SEQ ID NO:16, VL SEQ ID NO:18 (antibody, listed as Mus musculus, V domains shown) VH: EVQLQQSGPELVKPGSSVKISCKPSGYTFTDYNMVWMKQSHGKSLEWIGAINPNNGGTTYNQKFKGKATLTVDKSSSTAYMELRSLTSEDSAVYYCAPNWDWFAYWGQGTLVTVSA VL: DVLMTQIPLSLPVSLGDQASISCRSSQSILHSNGNTYLEWYLQKPGQSPKLLIYKVSNRFSGVPDRFSGSGSGTDFTLKISRVEAEDLGVYYCFQGSHVPFTFGSGTKLEIK | – | colocalize (merge) with V5-tag epitope signal | reacted with the full-length SAS1B splice variant A polypeptide
no V5 signal or SAS1B signal | specific to the human SAS1B only | demonstrated specificity | Yes | none of the them reacted | SB7: mouse anti-human SAS1B monoclonal antibody, IgG2b; VH SEQ ID NO:16, VL SEQ ID NO:18 (antibody, listed as Mus musculus, V domains shown) VH: EVQLQQSGPELVKPGSSVKISCKPSGYTFTDYNMVWMKQSHGKSLEWIGAINPNNGGTTYNQKFKGKATLTVDKSSSTAYMELRSLTSEDSAVYYCAPNWDWFAYWGQGTLVTVSA VL: DVLMTQIPLSLPVSLGDQASISCRSSQSILHSNGNTYLEWYLQKPGQSPKLLIYKVSNRFSGVPDRFSGSGSGTDFTLKISRVEAEDLGVYYCFQGSHVPFTFGSGTKLEIK | – | colocalize (merge) with V5-tag epitope signal | reacted with the full-length SAS1B splice variant A polypeptide
